Experiment: label from the status in PepcDB records

For “MDMLFQWLLLTAAVAAGWAVGRYGNRSGRASRAIMDEDSVRDRLQFLFTNYSDQAVDNFVQSLAVNKDTVSLHLSIGSHFRNKGETDRAILIHQNLLARPELPARYSPQVTQELAMDYLNAGLLDRAEALFHQLMGDREYGRRSAIALIELYQQEREWEKAAQVAKTLTRSDADPATFKALAYITCELSDGALSRNDDRWTAQKLAKEALDYDRSCVRATLLLMKLQIRQGNFREAANQSLKIFDQNPEFGPEAIDRLMKLEREHGDVSRLYKKLRKLYEQYPSTSLLLALVESVERSSGRPAAIDLLRMELETRPSVRGLLRLVEMAGYEKGMTTDEGRLVSRIGHLILANRPVYRCVSCGFSGQQLHWLCPSCKQWETVRPIQGVEAE”, which protein production is on record?
The protein production was “failed”.

Which protein production does the source give for “MDMRVSWFLLLLPFVLTSALAATSAASHASGPPAFMGQLTLLLLVAGATAFASFRLGLVPIIGFLFAGVLAGPSALGIIDDPALIGAASEIGVMLLLFTIGIEFSLDKLARIFRLIFVGGGLQVLLTVAAVTGVLLAFGVSLPNAVFTGFLLSLSSTAIVTKILESRGGVGSPTGQASLGILIFQDLAVVVMVLLVPMLAGQGGGAGGLVVALLKAGGIVAAVLLLARRVVPKLLEVVARTCSQEIFLLSTLSLCFATAYLTSLAGVSLALGAFLAGLLVSESRFGQQAFGEILPLQILFSAAFFLSVGLQLDLGFLWTHLPLVLGAVAVFAVLKALAAALSVRLLGFPLATAAATGWLLAQVGEFSFVLESSGRALGLSPAGLGETGTQTFIAATVLLMALTPVMATLGERLGALGRARPAPTAAPAEAPTRAEPNPEAPLAHLSGHVLVAGFGDHARRLVKGLAAQQVPFGVLTLSPDGAAQVTAHGYPVLIGDYARAGLLGDAGLASARALVVLDDVPEMTARVIGVARTLNPELTIVAHTDEPGEIATLRGVGATHVLTSTDAVARGVLGL” here?
The protein production was “failed”.

Which protein production does the source give for “MDMTYNMRNAMASSRNMEEPQYDMSTIDLTQNSMNTNYLMNGSVLTNAYNNDYIVNNRDKYTGDMISQLKIDQGIPTYSHTLPMNGTTLADTNDSLNIQGMMRTNMDTTGFDGYSHIMNYNNTQNTIQTNPITYRMEDYNNLNNDVMYINPTTGEKFSAEYVNNIPTNDSDNMLYSNNFKNNSINMNTLLNSHYNNLPYPMPIYESMNNPQMYMQHMNQKQTVNIPLQHGEKKSAARNISTVNKRRIKTKKFFPCC” here?
The protein production was “failed”.

For “MDMYHTKILKAIESEDYISVRRRVLRQLVESLIYEGIITPARIEKEEQILFLIQGLDEDNKSVTYECYGRERITFGRISIDSLIVRVQDGKQEIQSVAQFLEEVFRVVNVEQTKLDSFIHELEQTIFKDTIAQYERCNKLKYTQKSYDELENHLIDGHPYHPSYKARIGFQYRDNFRYGYEFMRPIKLIWIAAHKKNATVGYENEVIYDKILKSEVGERKLEAYKERIHSMGCDPKQYLFIPVHPWQWENFIISNYAEDIQDKGIIYLGESADDYCAQQSMRTLRNVTNPKRPYVKVSLNILNTSTLRTLKPYSVASAPAISNWLSNVVSQDSYLRDESRVILLKEFSSVMYDTNKKATYGSLGCIWRESVHHYLGEQEDAVPFNGLYAKEKDGTPIIDAWLNKYGIENWLRLLIQKAIIPVIHLVVEHGIALESHGQNMILVHKEGLPVRIALKDFHEGLEFYRPFLKEMNKCPDFTKMHKTYANGKMNDFFEMDRIECLQEMVLDALFLFNVGELAFVLADKYEWKEESFWMIVVEEIENHFRKYPHLKDRFESIQLYTPTFYAEQLTKRRLYIDVESLVHEVPNPLYRARQLNIQKSVATGGNYANC”, which protein production is on record?
Its protein production is “failed”.

With “MDNALTFVISTLCILALCYRFYGVFFVRKVLRADDSVVTPSHTFEDGKNYVPTKKWVNAGQHFAAIAAAGPLVGPVLAAQFGYLPGFLWLLVGCVVGGAVHDTVVLFASMKHNGKSLSNVAKAELGPVAGWCTGLAMLFIITITMAGLSMVVVHALERNPWGTFAVFMTIPIAIAVGLYERFTGNHKGATWVGIIAIMVAVLAGPYIQGTLLGDWLTLRVDSVALALPIYAFFASALPVWLLLTPRGYLSSFMKIGVFGALVVGVVIINPTIQFPALTDFIHGGGPVLAGPVWPFISITIACGAISGFHAFIGSGTTPKLVDKWSDIRPVAFGAMLAECMVAVLALVAATALHPADYFAINASPAAFASLGMEVVDLPHLSQEIGMDLAGRTGGAVTLAVGMTFIFTKLPWFATLSSYFFQFVIMFEAVFILTAVDSGTRVARYLIQDLGGDLYAPLKRLDWIPGSIGASVAACALWGYLLTSGDINSVWALFGVSNQLMASIGLIIGATIILRVAAKRIYMLTCLIPLAYLFVTVNYAGYWMIANVYLNTQARGYNPINAGISAIMMVLGLIILITAFGKWKTMLALPKSLRSGEVPAPSLP” as the sequence, how does the protein production read?
Its protein production is “failed”.

With “MDNDRDTVEFWSSLFQSFADSEPKDNPYPVVRSPIMTMSTPMAIDEPVEPWKVLEYGGKEVRPMAIDEPAEPWKALEYGGKDVRPMAIDVPAEPWKVGGKEAQPANAAAEAGYKNVNTDQEKSTQKATEKVIM” as the sequence, how does the protein production read?
The protein production was “not failed”.

With “MDNITFPSQGSLSSSNQTFDSQSAARNSNAPPEYVNQGLLLWNQTRERWVGKDKPNNPVDHNQGAKLNWNTATYDSLLGSNKLFPQPIPLTEMVDFLVDIWEQEGLYD” as the sequence, how does the protein production read?
Its protein production is “failed”.

Which protein production does the source give for “MDNLFYYMIIQNDRIQPIIVRQPQTVIIHSQPKLPITLDLPPQNIILKNEDPQPIIVRQSNPNIIIEKSQNDFYNHPNFHIGLHDKVNSMSDINNTNIKEQPIKDNMIEDMQNINNADTQFYYNNQNVINENNVLPTHYSYLNNGVFNKEHNYDPYNFTLYSNK” here?
The protein production was “failed”.

With “MDPAGASVASAIGGEGEKFAVGNIYSVKVITGDEFRGIGTKPRPGHLKNTRMVNASFITGLSYLGKTEDPLDSDNFSVDLNGLRAKEALAIRQAEADAERMGVGVTAEAQSIFDALSKTLPVQWENSDILVMKEVRVRSPYLSDCVFGGTDAANNRVKKVLELERRRLQLFGT” as the sequence, how does the protein production read?
The protein production was “failed”.

Which protein production does the source give for “MDPAVFEEWMMIILVTVLIGFMGFIVWDLAKKSKAGKFGTLILFFVLGLGVLAFIIKSVVVGFLEGV” here?
The protein production was “failed”.

Which protein production does the source give for “MDPIESVEYNGFETSNGNVDHGWKKVVYPKRHRKQKQADQATANGGKTVASNGTVANGGDNVFRSLEEQAEDRRRRILAAKMTAIDSDDDGVVRSKHRSNGYGDDGYDFDGSDDEIATLKVEEVKKPKPKKEKKPKVSLPEAASKIDPLNLEAFLVEASESYASQPEIQLMRFADYFGRALSGVSSVQFPWVKMFKESPLSKLIEVPLAHIPEPVYKTSVDWINHRPIEALGAFVLWAFDCILTDLAAQQGGAKGGKKGGQQTTSKSQVAIFVALAMVLRRKPDALTNVLPTLRENPKYQGQDKLPVTVWMMAQASQGDIAVGLYSWAHNLLPVVGNKNCNPQSRDLILQLVEKILTNPKARTILVNGAVRKGERLIPPPSFEILLRLTFPASSARVKATERFEAIYPLLKEVALAGAPGSKAMKQVTQQIFTFALKLAGEGNPVLAKEATAIAIWSVTQNFDCCKHWDNLYKENLEASVAVLKKLVEEWKEHSVKLSSSPNDALTLNRTMKSFRLKNEEVITEGGANASLYKEADKSCKTISGRLSRGSGCLKGTAITLVFLAAAGAAAAAVLSSNPEVTNELKNLVDSLELHEYINKYTEVISTALKK” here?
Its protein production is “failed”.

For “MDPLNLSWYDDDLERQNWSRPFNGSDGKADRPHYNYYATLLTLLIAVIVFGNVLVCMAVSREKALQTTTNYLIVSLAVADLLVATLVMPWVVYLEVVGEWKFSRIHCDIFVTLDVMMCTASILNLCAISIDRYTAVAMPMLYNTRYSSKRRVTVMISIVWVLSFTISCPLLFGLNNADQNECIIANPAFVVYSSIVSFYVPFIVTLLVYIKIYIVLRRRRKRVNTKRSSRAFRAHLRAPLKGNCTHPEDMKLCTVIMKSNGSFPVNRRRVEAARRAQELEMEMLSSTSPPERTRYSPIPPSHHQLTLPDPSHHGLHSTPDSPAKPEKNGHAKDHPKIAKIFEIQTMPNGKTRTSLKTMSRRKLSQQKEKKATQMLAIVLGVFIICWLPFFITHILNIHCDCNIPPVLYSAFTWLGYVNSAVNPIIYTTFNIEFRKAFLKILHC”, which protein production is on record?
Its protein production is “failed”.

For “MDPNKVEISRLEALPQDLLREIVAKIGVKSAEDYHNCILSCKELGASANDERVLKTLNLALLVKKPLSCRKHLLIMKKCLANNNPDAHYIKGIIWYFNLDHCDVDLHHIGIAANGGQKEAIYMYAMLLLCRGRTEEGKTYMSQLEWAKTPPWLKRVGNKSKLH”, which protein production is on record?
The protein production was “failed”.

Which protein production does the source give for “MDPRKVNELRAFVKMCKQDPSVLHTEEMRFLREWVESMGGKVPPATQKAKSEENTKEEKPDSKKVEEDLKADEPSSEESDLEIDKEGVIEPDTDAPQEMGDENAEITEEMMDQANDKKVAAIEALNDGELQKAIDLFTDAIKLNPRLAILYAKRASVFVKLQKPNAAIRDCDRAIEINPDSAQPYKWRGKAHRLLGHWEEAAHDLALACKLDYDEDASAMLKEVQPRAQKIAEHRRKYERKREEREIKERIERVKKAREEHERAQREEEARRQSGAQYGSFPGGFPGGMPGNFPGGMPGMGGGMPGMAGMPGLNEILSDPEVLAAMQDPEVMVAFQDVAQNPANMSKYQSNPKVMNLISKLSAKFGGQA” here?
Its protein production is “failed”.

For “MDPVLLLSALLLLAFGLIGVGTAEPGLLQDHLLRVGAALLALVLGHLLPPRLLLRYALHALVGVLLLLVLVLLVGDGPGGVRRWFYLGPVALQPSELAKLALILYLSSFVGRRGEDYPILGPVLAVGSLVGLVLVEPDFATAAFLAGLAVLLFVLAGIPWPRLLGMGLAVALVVLPFSGLYLAQFRYVSERFANFVDYLQGESEPGGGAYQVVQAKKALLLGGPFGQGPGATLPHLPEAHNDMVFASVVFATGWLGGAVVFLLYTLILLRSLAVGLALKGGERLLALGLGLYLALQAALNIGVTLGVLPVTGVPLPLVSYGGSSLLVSGFAVGLLSRLAREAAERPRRKGVAR”, which protein production is on record?
Its protein production is “failed”.

For “MDQNVPISKKLWNIVRFLLYMIRKGVSKNKLIADFNATLKRGKNLMFHQRRRVHAGSTASAALNATSATASSRQEYEFSCSNTPNYSFPFSNMAFMRKKSHNNLFTCGQTPQTLDDDVAAARAVLELLNGVGEKGNVTPADLTVALSPYFPGFGQTPLVRPLRVTDSPFPLTPENGDVANGHVDKAADDFIKKFYKNLNQQKKMIEFS”, which protein production is on record?
The protein production was “failed”.

With “MDQSTLRHRITDQFSYRGERADIWRAFDLLFDTDEFLNLGYSEWYQPHIAGSSQRRLVTEVGSRVASHLPTTDGVRLLDVGCGRGGPALHLAYQFGFNVTGVDLVPYNIQMATENARGKHLDSEFIIGDATQLPFTRDSFTACTAIDALVYLPERNRVFATVADTLEPEGVLVVSDLVMQSDVTETERRLVDSFADAWDMPSLGTVEGYKAALDETSFELKAVEDITKHSVGRFRKWTTLYLQLLTSPLRALIERLLGAYDLDPPAITEQVRKAHHALPFLRHVIFVAELETT” as the sequence, how does the protein production read?
The protein production was “failed”.

With “MDRDELVRYLDAYLRIQDFPQDPSLNGLQVEGKRTVRKVGAAVDAGEAIFRKALEEEVDFLIVHHGLFWGKPFPIVGHHKRRLETLFQGGINLYAAHLPLDAHEEVGNNFVLARELGLVDLTPWDVGVKGRFPQPTPLLQVADRLGQLTGMQPLVHQGGLDHVETVILVSGSGTGLLPKVDADLFVTGEPKHSVFHETFERGLNVIYAGHYDTETFGVKALAAHLEARFGLPWVFLDHPTGL” as the sequence, how does the protein production read?
The protein production was “not failed”.

Reference: a protein production outcome set (Wang et al. 2014)
